Reference: paper PMC3229090 (Biochemistry, 2011)
Ends that are not written are not given here.

Columns and labels:
[1] = Reverse phase C18 HPLC elution as measure of hydrophobicity; type: physicochemical; settings: reverse phase C18, 30 min gradient from 99:1 A/B to 70:30 A/B, water/acetonitrile + 0.05% TFA, flow rate 1 ml/min
HeLa cells = test: HeLa proliferation assay; type: cell-based, Human; settings: pH 6.0 and 7.4, treatment 3 hrs, data not shown
[2] = measured previously; ref [20]; cited from earlier work

Substance	HPLC elution time of phallotoxins [1] [min]	Antiproliferative effect at either pH (HeLa cells)	Log P of phalloidin-rhodamine [2]
phallacidin (AWLVDCP; also: cyclic peptide, R1 = H, R2 = COOH)	30.3	do not demonstrate an antiproliferative effect	
phalloidin-rhodamine			-0.05
